# In article PMC11211670 (mLife, 2024):
# B1: ecCTPS with an inserted hCTPS helix 12 (ecCTPS^helix12+) (enzyme, Escherichia coli | human)
# chain: MTTNYIFVTGGVVSSLGKGIAAASLAAILEARGLNVTIMKLDPYINVDPGTMSPIQHGEVFVTEDGAETDLDLGHYERFIRTKMSRRNNFTTGRIYSDVLRKERRGDYLGATVQVIPHITNAIKERVLEGGEGHDVVLVEIGGTVGDIESLPFLEAIRQMAVEIGREHTLFMHLTLVPYMAASGEVKTKPTQHSVKELLSIGIQPDILICRSDRAVPANERAKIALFCNVPEKAVISLKDVDSIYKIPGLLKSQGLDDYICKRFSLNCPEANLSEWEQVIFEEANPVSEVTIGMVGKYIELPDAYKSVIEALKHGGLKNRVSVNIKLIDSQDVETRGVEEEPVRYHEAWQILKGLDAILVPGGFGYRGVEGMITTARFARENNIPYLGICLGMQVALIDYARHVANMENANSTEFVPDCKYPVVALITEWRDENGNVEVRSEKSDLGGTMRLGAQQCQLVDDSLVRQLYNAPTIVERHRHRYEVNNMLLKQIEDAGLRVAGRSGDDQLVEIIEVPNHPWFVACQFHPEFTSTPRDGHPLFAGFVKAASEFQKRQAK
# notes: E. coli CTP synthase, the stretch before the insertion; Helix 12 of human CTPS1, inserted; H346 and W349 of the variant correspond to H355 and W358 of hCTPS1; E. coli CTP synthase, the stretch after the insertion; It ends with HHHHHH, which is written here as the tag; also called engineered ecCTPS
# B2: Escherichia coli CTP synthase (cytidine triphosphate synthase) (enzyme, UniProt P0A7E5 1-545, looked up)
# chain: MTTNYIFVTGGVVSSLGKGIAAASLAAILEARGLNVTIMKLDPYINVDPGTMSPIQHGEVFVTEDGAETDLDLGHYERFIRTKMSRRNNFTTGRIYSDVLRKERRGDYLGATVQVIPHITNAIKERVLEGGEGHDVVLVEIGGTVGDIESLPFLEAIRQMAVEIGREHTLFMHLTLVPYMAASGEVKTKPTQHSVKELLSIGIQPDILICRSDRAVPANERAKIALFCNVPEKAVISLKDVDSIYKIPGLLKSQGLDDYICKRFSLNCPEANLSEWEQVIFEEANPVSEVTIGMVGKYIELPDAYKSVIEALKHGGLKNRVSVNIKLIDSQDVETRGVEILKGLDAILVPGGFGYRGVEGMITTARFARENNIPYLGICLGMQVALIDYARHVANMENANSTEFVPDCKYPVVALITEWRDENGNVEVRSEKSDLGGTMRLGAQQCQLVDDSLVRQLYNAPTIVERHRHRYEVNNMLLKQIEDAGLRVAGRSGDDQLVEIIEVPNHPWFVACQFHPEFTSTPRDGHPLFAGFVKAASEFQKRQAK
# notes: CTP synthase of Escherichia coli, full-length gene in pET28a; In the cryo-EM sample it forms tetramers that stack into filaments; also called ecCTPS; wild-type ecCTPS; source: E. coli Transetta (DE3), purified (Ni-Agarose, Superose 6 Increase)
# Assays:
# [1] = molecular target: the molecule itself; experiment: cryo-electron micrographs of filaments; purified ecCTPS^helix12+ in the product state (CTP); filaments seen in cryo samples
# [2] = molecular target: the molecule itself; experiment: cryo-EM structure; 7 uM ecCTPS incubated with 0.58 mM DON, 1 mM CTP, 0.5 mM NADH and 10 mM MgCl2 for 30 min at 0 °C; single particle analysis of filaments, D2 symmetry, mask on the central tetramer
Protein,binding result [1],stoichiometry N [2]
B1,binds,
B2,,4
